# Laboratory results reported in article PMC9302720.
# Molecular target: SARS-CoV-2 protein S ectodomain, Wuhan-Hu-1 variant (SARS-CoV-2 | not stated) (UniProt P0DTC2)
# Experiment: BLI
substance,measurement,value
N-terminal peptidase domain of human ACE2 (domain or fragment),Kd,79.3 nM
same,koff,0.0162 s⁻¹
same,kon,210000 M⁻¹ s⁻¹
